Data on three molecules can be found in US20250346643A1, “TROPOMYOSIN KINASE RECEPTOR (TRK) LIGANDS AS THERAPEUTICS TO SUPPORT LIVER REGENERATION” (Vanderbilt University, priority 2024, published 2025).

In data set [1] the test system is CCND1. Description: Western blot of CCND1 in AML12 cell lysates. Particulars: AML12 (FIG. 9I-J). The class given is cell-based, mouse. How it is done: Human HepG2 and mouse AML12 cells were grown in 6-well plates. Cells were treated with NTF3 (20 ng/ml) purchased from STEMCELL technologies, Vancouver, Canada (cat. 78074), R&D Systems, Minneapolis, MN (267-N3), Gibco, Waltham, MA (PHC7036) and/or Loxo-195 (5-10 nM) (Selleckchem, Houston, TX; S8636) in complete growth media without L-glutamine for 2 hours. Lyophilized NTF3 was solubilized with sterile filtered PBS supplemented with 0.1% BSA, aliquoted and stored at −80° C. until use. […] HepG2 and AML12 cells were collected on ice in PBS, centrifuged for 10 sec […] cell pellet homogenized in RIPA buffer containing inhibitors (Roche, Basel, Switzerland; complete Mini proteinase inhibitor, 1×HALT phosphatase inhibitors, Thermo Scientific, Waltham, MA; cat. 78428). Cell lysates were sonicated and centrifuged for 10 min at 18,800×g. Protein concentration of supernatants were determined by Direct Detect Spectrophotometer (MilliporeSigma, Burlington, MA).
For immunoblot analysis, 30-50 μg of protein diluted in LSD sample buffer (Invitrogen, Waltham, MA) were analyzed per SDS-PAGE (NuPAGE™, Invitrogen, Waltham, MA) using MOPS buffer or MES buffer (Invitrogen, Waltham, MA). […] Semi-quantitative band densitometry was performed using ImageJ software (version 1.53).
In general terms: A western blot detects proteins with antibodies after separation by electrophoresis.

Data set [2] relates to primary mouse hepatocytes. Description: Cell proliferation assay (CellTiter-Glo) in primary mouse hepatocytes. The class given is cell-based. Particulars: for increase of primary hepatocyte proliferation: HGF 5 ng/ml, serum-free medium (FIG. 9M); for cell proliferation, comparison of NTF3, HGF, BDNF and NAS: BDNF and HGF 20 ng/ml, NAS 500 nM (FIG. 16E). The procedure: Primary hepatocyte isolation. Pdgfrb-GFP-negative or H-2Kd mice older than 4 months were anesthetized and cannulated via the portal vein. Livers were perfused with about 25 ml of pre-warmed Liver Perfusion Medium (Gibco, Waltham, MA; 17707-038) followed by about 50 ml Liver Digestion Medium (Gibco, Waltham, MA; 17703-034). Liver capsule was gently teased apart with tweezers and hepatocytes released. Cells were taken up in Hepatocyte Wash Buffer (Gibco, Waltham, MA; 17704-024) and filtered through 100 μm mesh. Cells were then centrifuged for 2 min at 100 g, 4° C. and cell pellet resuspended in ice cold 10 ml DMEM (Gibco, Waltham, MA; 11885-084)/5% FBS. 10 ml of ice cold 100% Percoll®/PBS (GE HealthCare, Chicago, IL; GE17-0891-01) was added for gradient purification and cells centrifuged for 10 min at 200 g, 4° C. Cell pellet was resuspended with 20 ml DMEM/5% FBS and centrifuged for 2 min at 100 g, 4° C. 1-2×10^3 hepatocytes were plated on collagen-coated 96-well plates in DMEM/5% FBS/Pen/Strep. Rat tail collagen I (Gibco, Waltham, MA; A1048301) was used for coating. Cell culture media was changed 3 hours after plating with either serum-free William's E media (Gibco, Waltham, MA) containing Pen/Strep (Gibco, Waltham, MA) or DMEM/5% FBS/Pen/Strep. NTF3 (STEMCELL technologies, Vancouver, Canada) was added 1 day after plating at a final concentration of 20 ng/ml and primary hepatocytes cultured for 3 days with NTF3 until analysis.
Cell proliferation assays. Primary mouse hepatocytes, HepG2 or AML 12 cells were grown in opaque-walled 96-well plates. NTF3 (final concentration 20 ng/ml) (STEMCELL Technologies, Vancouver, Canada; cat. 78074) and/or Loxo-195 (final concentration 5 nM) (Selleckchem, Houston, TX; S8636) were added into complete growth media without L-glutamine. Primary mouse hepatocytes were also grown in serum-free William's E media without supplements. Cells were analyzed by CellTiter-Glo® (Promega G7570, Madison, WI) which detects the number of viable cells on day 0 to day 5 by on detection systems GloMax® (Promega) or Bioteck Synergy H1 (Agilent, Santa Clara, CA). Mouse recombinant HGF (Abcam, Cambridge, UK; ab281797) was added to cell culture media at a final concentration 5 ng/ml. TRKB inhibitor ANA-12 (Selleckchem, Houston, TX; S7745) was diluted in DMSO (10 mM stock solution) and added to cell culture media at a final concentration of 10 nM.
Primary mouse hepatocyte isolation. Mice were anesthetized and cannulated via the portal vein. Livers were perfused with ˜25 ml of prewarmed liver perfusion medium (Gibco, Waltham, MA; 17707-038) followed by ˜50 ml of liver digestion medium (Gibco, Waltham, MA; 17703-034). The liver capsule was gently teased apart with tweezers, and hepatocytes were released. Cells were taken up in Hepatocyte Wash Buffer (Gibco, Waltham, MA; 17704-024) and filtered through a 100-μm mesh. Cells were then centrifuged for 2 min at 100 g, 4° C., and the cell pellet was resuspended in 10 ml of ice-cold DMEM (Gibco, Waltham, MA; 11885-084)/5% FBS. […] of ice-cold 100% Percoll®/PBS (GE HealthCare, Chicago, IL; GE17-0891-01) were added for gradient purification, and cells were centrifuged for 10 min at 200 g, 4° C. The cell pellet was resuspended with 20 ml of DMEM/5% FBS and centrifuged for 2 min at 100 g, 4° C. A total of 1×10^3 to 2×10^3 hepatocytes were plated on collagen-coated 96-well plates in DMEM/5% FBS/Pen/Strep. Rat tail collagen I (Gibco, Waltham, MA; A1048301) was used for coating. Cell culture media were changed 3 hours after plating with either serum-free William's E media (Gibco, Waltham, MA) containing Pen/Strep (Gibco, Waltham, MA) or DMEM/5% FBS/Pen/Strep. […]
On the technique in general: In ATP-based viability assays light output follows the ATP content of the culture.

For the molecule “NTF3: neurotrophin-3, recombinant protein; HSC-derived hepatocyte mitogen, ligand of TRKA, TRKB, TRKC”, the “CCND1 amounts, NTF3 from three different vendors” value in data set [1] is on record as “CCND1 amounts increased”. In data set [2] (NTF3 20 ng/ml + HGF 5 ng/ml, serum-free medium (FIG. 9N)), the “synergism with HGF on primary hepatocyte proliferation” value is listed as “no synergistic effects”. The “increase of primary hepatocyte proliferation” value in data set [2] (NTF3 20 ng/ml) is on record as 1.5 fold. Besides, the “cell proliferation vs control-treated hepatocytes” value in data set [2] (NTF3 20 ng/ml, serum-free and serum-containing media (FIG. 8F, 9D)) is given as “significantly higher”.

B1: HGF: hepatocyte growth factor, complete hepatocyte mitogen used as comparator (protein, UniProt Q08048 33-495; Q08048 496-728, looked up)
Hepatocyte growth factor …: QKKRRNTLHEFKKSAKTTLTKEDPLLKIKTKKVNSADECANRCIRNRGFTFTCKAFVFDKSRKRCYWYPFNSMSSGVKKGFGHEFDLYENKDYIRNCIIGKGGSYKGTVSITKSGIKCQPWNSMIPHEHSFLPSSYRGKDLQENYCRNPRGEEGGPWCFTSNPEVRYEVCDIPQCSEVECMTCNGESYRGPMDHTESGKTCQRWDQQTPHRHKFLPERYPDKGFDDNYCRNPDGKPRPWCYTLDPDTPWEYCAIKTCAHSAVNETDVPMETTECIQGQGEGYRGTSNTIWNGIPCQRWDSQYPHKHDITPENFKCKDLRENYCRNPDGAESPWCFTTDPNIRVGYCSQIPKCDVSSGQDCYRGNGKNYMGNLSKTRSGLTCSMWDKNMEDLHRHIFWEPDASKLNKNYCRNPDDDAHGPWCYTGNPLIPWDYCPISRCEGDTTPTIVNLDHPVISCAKTKQLR
Hepatocyte growth factor beta …: VVNGIPTQTTVGWMVSLKYRNKHICGGSLIKESWVLTARQCFPARNKDLKDYEAWLGIHDVHERGEEKRKQILNISQLVYGPEGSDLVLLKLARPAILDNFVSTIDLPSYGCTIPEKTTCSIYGWGYTGLINADGLLRVAHLYIMGNEKCSQHHQGKVTLNESELCAGAEKIGSGPCEGDYGGPLICEQHKMRMVLGVIVPGRGCAIPNRPGIFVRVAYYAKWIHKVILTYKL
As to B1, in data set [2], the “cell proliferation, comparison of NTF3, HGF, BDNF and NAS” value is “more potent”. Further, the “increase of primary hepatocyte proliferation” value in data set [2] (NTF3 20 ng/ml) worked out at 2.6 fold.

B2: BDNF: brain-derived neurotrophic factor, neurotrophin specific for TrkB (protein)
chain: HSDPARRGELSVCDSISEWVTAADKKTAVDMSGGTVTVLEKVPVSKGQLKQYFYETKCNPMGYTKEGCRGIDKRHWNSQCRTTQSYVRALTMDSKKRIGWRFIRIDTSCVCTLTIKRGR
In the case of B2, the cell proliferation entry in data set [2] (BDNF 20 ng/ml (FIG. 16C)) is given as “significantly induced proliferation”. For the same molecule, the “cell proliferation, comparison of NTF3, HGF, BDNF and NAS” value in data set [2] is on record as “induce proliferation to a similar extent”.
